# Fewer inactive variants are shown than the library holds.
# B1: TPR 5TU (parent)
# chain: GGAUCUUCUCGAUCUAACAAAAAAGACAAAUCUGCCACAAAGCUUGAGAGCAUCUUCGGAUGCAGAGGCGGCAGCCUUCGGUGGCGCGAUAGCGCCAACGUUCUCAACUAUGACACGCAAAACGCGUGCUCCGUUGAAUGGAGUUUAUCAUG
# Variants of: B1
# Assay: polymerase ribozyme fitness, log enrichment relative to wild type (log ratio); higher = more active; in vitro selection for triplet polymerase activity
# How it was run: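 One round of in vitro selection, in triplicate, was applied to PCR-built, transcribed mutant libraries of each subunit of a heterodimeric triplet polymerase ribozyme. The steps were annealing with a biotinylated primer, partner subunit and triplets, incubation frozen at −7 °C, gel excision of extended constructs, streptavidin-bead capture and RT-PCR. Fitness is the logarithm, base 2, of genotype enrichment over wild-type enrichment from inverse-variance-weighted replicate averages of Illumina-sequenced inputs and outputs, keeping genotypes with ≥10 input reads and ≥1 read per output.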
row,Variant,polymerase ribozyme fitness (log ratio)
1,A52G G83C C105A,-2.55
2,A52U A150G,-1.24
3,A52U U144G A147C,-0.409
4,A52G C75A U82A C95A,≤ -4.2
5,A52G G94C,-1.32
6,U53G C93A C95A A97U A98C G100U U130G G140U,≤ -4.2
7,A52U C54U A97U,-2.56
8,U53A C54U U55A A60U U77G C85U G92A G112A A121U,≤ -4.2
9,U53A C63U C69U A122U,-3.99
10,U53A C54U G74U C75U G86U G141A,≤ -4.2
11,U53A G140C,-3.65
12,U53A G83A C118A,-1.88
13,A52G G84A C118U C123G,-1.29
14,U53A A97G A121U C125A,-1.26
15,U53A C96U C105G G112C U146C,≤ -4.2
16,U53A C85U,-1.4
17,U53A U55G,-3.97
18,U53A G117A,-0.303
19,A52U A73C G83C G84A G92U C123G,≤ -4.2
20,U53A C118G,-2.5
21,A52G U56A,-0.876

row,Variant,polymerase ribozyme fitness (log ratio)
1,U53A G81A C85A C131U,-4.19
2,A52G U104G,-1.26
3,A52U C93U A119U G124U,-3.24
4,A52U C95A C103G C116G G133U,≤ -4.2
5,U53A C123U,-0.0861
6,U53G C54A C95U U104C A106U C118U C149G,≤ -4.2
7,A52G U90A A142G,≤ -4.2
8,A52U U82G U135G A150U,-2.62
9,A52U G83A U90C A106U U127A,≤ -4.2
10,A52U A73U G92U,-3.66
11,A52G G141A,-1.24
12,A52G C96U,-1.46
13,A52G C69A,-3.71
14,U53A G59C C85U U135A,-0.238
15,U53A G80C G143U,≤ -4.2
16,U53A G58A A73U C75A A89U G92U A110U G126U G140A A147U,≤ -4.2
17,A52U G59C A91U,≤ -4.2
18,U53A G81C C87U C123A,-1.74
19,A52G G74C C96U U144G,≤ -4.2
20,U53A C75G U109G U139C,≤ -4.2
21,U53A A66C A91U U104G G124A G141A,≤ -4.2

row,Variant,polymerase ribozyme fitness (log ratio)
1,A52U C96U U101G U145G,-4.1
2,U53G C87U A113U C116A G140U,≤ -4.2
3,A52U C96A,-2.92
4,U53A C75G C76U U82A C95U G128A,≤ -4.2
5,U53A C93U U130G,≤ -4.2
6,U53A G80C A106C C125U,≤ -4.2
7,U53A U55A C57A C85G A122G,-2.51
8,U53A C54G,-2.2
9,U53A C54U,-0.319
10,A52G U53A A89C C93U,-2.02
11,U53C G86A C95U,-1.78
12,U53G G80C,-4.15
13,A52U C93A U139G,≤ -4.2
14,A52G U82C G92U C93U G126A,-1.76
15,U53A A60U U61A C69G C96U,-3.74
16,U53A G143A U146C,-2.83
17,U53A C103G,-3.95
18,U53G G58C U82G A138C U151A,≤ -4.2
19,A52G C85A G140U,≤ -4.2
20,A52U G92U C105A,-3.93
21,U53C G74A C76G C96U A110U,≤ -4.2

row,Variant,polymerase ribozyme fitness (log ratio)
1,A52G C76U C93G,-2.91
2,U53A A137U,≤ -4.2
3,A52G C96U U101A A142U A150G,≤ -4.2
4,U53A C57G,-2.09
5,A52U C118U U146G,-3.62
6,U53A G81A C95U A120C U144G,-1.05
7,A52U A91U U139G U144A,≤ -4.2
8,U53G C54U C96U A98G G133C G141U,-4.03
9,A52G C57A G92U,-0.753
10,U53A G70C C114A,≤ -4.2
11,A52G G86U C96G U144C U151C,≤ -4.2
12,A52U A73G U102C,≤ -4.2
13,A52U C87U C103U,-2.81
14,A52G U144A,-0.831
15,U53A C125U,-1.28
16,U53G A110G G117A U148A,≤ -4.2
17,U53A A150C,-3.56
18,U53G G62C C85U U109C,≤ -4.2
19,U53C U56A A89U C93U G141U,-1.74
20,U53A A120G,-1.88

# Reference: the RNAGym collection of RNA variant scans (doi:10.1073/pnas.2313332121)
